# Measured values taken from PMC9364601.
# What was measured:
# [1] = target: microtubules polymerized from tubulin purified from goat brain, Taxol-stabilised (goat); experiment: single-molecule motility assay (TIRF); Taxol-stabilised MTs adsorbed on the coverslip, purified fluorescent motors in the motility mix; P12 buffer pH 6.8, BSA, 2 mM ATP, room temperature; run time and detachment rate computed from run length and velocity
# [2] = target: microtubules polymerized from tubulin purified from goat brain, Taxol-stabilised (goat)
# [3] = target: microtubules polymerized from tubulin purified from goat brain, Taxol-stabilised (goat); remark: listed apart in the source
Molecule,detachment rate from the MT (koff) [1],mean run time (average time spent on the MT) [1],"Km for microtubules of the MT-stimulated ATPase (Michaelis-Menten fit; 10 nM motor, 1-80 µM MTs, BRB80, room temperature) [2]","microtubule affinity from the enzyme kinetics of the MT-stimulated ATPase, decrease compared to wild-type motors (times (decrease against wild type)) [3]"
KHC(1–560)-mCit-Flag (from UniProt P56536 1-560) (domain or fragment),0.72 s⁻¹,1.39 s,10.2 µM,
"KIF1A R167C mutant motor, purified (domain or fragment)",,,,1.5
KIF16B(1–400)-mCit-Flag (from UniProt Q96L93 1-400) (domain or fragment),0.1 s⁻¹,9.83 s,2.43 µM,

# Other lines, results leading:
detachment rate from the MT (koff) [1],mean run time (average time spent on the MT) [1],"Km for microtubules of the MT-stimulated ATPase (Michaelis-Menten fit; 10 nM motor, 1-80 µM MTs, BRB80, room temperature) [2]","microtubule affinity from the enzyme kinetics of the MT-stimulated ATPase, decrease compared to wild-type motors (times (decrease against wild type)) [3]",Molecule
0.23 s⁻¹,4.38 s,7.03 µM,,KIF1A(1-393LZ)-mCit-Flag (from UniProt F1M4A4 1-393) (domain or fragment)
0.15 s⁻¹,6.61 s,5.16 µM,,KIF13A(1-411ΔP390)-mCit-Flag (domain or fragment) MSDTKVKVAVRVRPMNRRELELNTKCVVEMEGNQTVLHPPPSNTKQGERKPPKVFAFDYCFWSMDESNTTKYAGQEVVFKCLGEGILEKAFQGYNACIFAYGQTGSGKSFSMMGHAEQLGLIPRLCCALFKRISLEQNESQTFKVEVSYMEIYNEKVRDLLDPKGSRQSLKVREHKVLGPYVDGLSQLAVTSFEDIESLMSEGNKSRTVAATNMNEESSRSHAVFNIIITQTLYDLQSGNSGEKVSKVSLVDLAGSERVSKTGAAGERLKEGSNINKSLTTLGLVISSLADQAAGKGKSKFVPYRDSVLTWLLKDNLGGNSQTSMIATISPAADNYEETLSTLRYADRAKRIVNHAVVNEDPNAKVIRELREEVEKLREQLSQAEAMKAELKEKLEESEKLIKELTVTWE
0.12 s⁻¹,8.06 s,4.23 µM,,KIF13B(1-412ΔP391)-mCit-Flag (domain or fragment) MGDSKVKVAVRIRPMNRRETDLHTKCVVDVDANKVILNPVNTNLSKGDARGQPKVFAYDHCFWSMDESVKEKYAGQDIVFKCLGENILQNAFDGYNACIFAYGQTGSGKSYTMMGTADQPGLIPRLCSGLFERTQKEENEEQSFKVEVSYMEIYNEKVRDLLDPKGSRQTLKVREHSVLGPYVDGLSKLAVTSYKDIESLMSEGNKSRTVAATNMNEESSRSHAVFKITLTHTLYDVKSGTSGEKVGKLSLVDLAGSERATKTGAAGDRLKEGSNINKSLTTLGLVISALADQSAGKNKNKFVPYRDSVLTWLLKDSLGGNSKTAMVATVSPAADNYDETLSTLRYADRAKHIVNHAVVNEDPNARIIRDLREEVEKLREQLTKAEAMKSELKDRLEESEKLIQEMTVTWE
